Experimental findings from US20200399369A1 (Sanofi, published 2020) are described below.

The target of assay [1] is T1, human CD38 (human, UniProt P28907 43-300, limits assumed).
T1 construct: also called hCD38; huCD38
Nature of the assay: FACS. (Flow cytometry measures light scatter and fluorescence of single cells or particles in a stream.)

The target of assay [2] is T2, cynomolgus monkey CD38 (cynomolgus monkey, UniProt Q5VAN0 44-301, limits assumed).
T2 construct: also called Cyno CD38; cynoCD38
Put plainly: FACS.

For assay [3], the target named is T1, human CD38. Put plainly: ELISA.
In assay [4] the target is T2, cynomolgus monkey CD38. Nature of the assay: ELISA. (In an ELISA, binding on a coated surface is turned into a signal by an enzyme label.)
Assay [5] has as its target T1, human CD38. Put plainly: SPR. Background: In SPR one partner is held on a chip, and binding of the other changes the refractive index at the surface.
For assay [6], the target named is T2, cynomolgus monkey CD38. Put plainly: SPR.
Assay [7] deals with T3, human CD38 on tumor cell lines NCI-H929 (CD38+/CD28+) and OCI-LY19 (CD38+/CD28-) (human, UniProt P28907 1-300). Nature of the assay: cell-based or functional assay.
Assay [8] concerns the target T3, human CD38 on tumor cell lines NCI-H929 …. Nature of the assay: cell-based or functional assay. This is another data set of the same source.
Another assay has as its target T4, Human CD28 (human, UniProt P10747 19-152, limits assumed).
T4 construct: also called hCD28
Nature of the assay: ELISA, antigen-coated plate.

Assay [9] deals with T1, human CD38. Nature of the assay: ELISA, antigen-coated plate.
Protocol: (§1) Binding affinities to each target antigen by the CD38/CD28×CD3 T cell engagers were measured by ELISA. Briefly, each antigen was used to coat the 96-well Immuno Plate (Thermo Fisher Scientific) overnight at 4° C. using 200 ng/well in PBS (pH7.4) of each antigen. The coated plate was blocked using 5% skim milk+2% BSA in PBS for one hour at RT, followed by washing with PBS+0.25% Tween 20 three times (Aqua Max 400, Molecular Devices). Serial dilution of antibodies (trispecific and control Abs) were prepared and added onto the ELISA plates (100 μl/well in duplicate), incubated at room temperature (RT) for one hour, followed by washing 5 times with PBS+0.25% Tween 20. […] The reaction was terminated by adding 50 μl 1M H₂SO₄, and OD450 was measured using SpectraMax M5 (Molecular Devices) and analyzed using SoftMax Pro6.3 software (Molecular Devices). The final data was transferred to GraphPad Prism software (GraphPad Software, CA, USA), and plotted. EC50 was calculated using the same software.
(§2) The binding affinities of selected CD38/CD28sup×CD3mid_ENLQ DKTHT IgG4 FALA trispecific antibodies with alternative anti-CD38 binding domains for human CD3, human CD28, human CD38 and cynomolgus monkey CD38 were then determined by ELISA as described above.
Assay [10] has as its target T2, cynomolgus monkey CD38. Put plainly: ELISA, antigen-coated plate.
Protocol: as §1, §2
In the next assay the target is T5, Human CD3 (human).
T5 chain: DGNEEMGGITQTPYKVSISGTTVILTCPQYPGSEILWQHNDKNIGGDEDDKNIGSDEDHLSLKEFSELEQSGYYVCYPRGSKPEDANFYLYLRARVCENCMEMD
Nature of the assay: ELISA, antigen-coated plate.

The next assay addresses T6, Human CD38-His (human, UniProt P28907 43-300, limits assumed).
T6 construct: Bought antigen; also called human CD38 (SPR antigen); not shown: His tag
Put plainly: SPR (BIACORE 3000), capture format, 1:1 Langmuir model.

Protocol for Human CD28: as §1, §2
Protocol for Human CD38-His: Human CD38-His antigens were used (Cambridge Biologics, Cambridge, Mass.) for full kinetic analysis. Kinetic characterization of purified antibodies was performed using SPR technology on a BIACORE 3000 (GE Healthcare). A capture assay using human IgG1 specific antibody capture and orientation of the investigated antibodies was used. For capture of Fc containing protein constructs the human antibody capture kit (GE Healthcare) was used. For capture of His tagged antigen, anti-His antibody capture kit (GE Healthcare) was used. The capture antibody was immobilized via primary amine groups (11000 RU) on a research grade CM5 chip (GE Life Sciences) using standard procedures. […] Binding kinetics were measured against the trispecific antibodies. Assay buffer HBS EP (10 mM HEPES, pH 7.4, 150 mM NaCl, 3 mM EDTA, and 0.005% Surfactant P20) was used at a flow rate of 30 μl/min. Chip surfaces were regenerated with the regeneration solution of the respective capture kit. Kinetic parameters were analyzed and calculated in the BIA evaluation program package v4.1 using a flow cell without captured antibody as reference and the 1:1 Langmuir binding model with mass transfer.

B1: AntiCD38_hyb_6284 (antibody, V domains shown)
VH: QVQLLQSGAELVRPGVSVKISCTGSGYSFTNYAVHWVKQSHVKSLEWIGVISPYYGDTTYNQKFTGKATMTVDKSSSTAYMELARLTSEDSAIYFCARRFEGFYYSMDYWGQGTSVTVSS
VL: DVVMIQTPLSLPVSLGDQASISCRPSQSLVHSNGNTYLNWYLQRPGQSPKLLIYKVSKRFSGVPDRFSGSGSGTDFTLKISRVEAEDLGVYLCSQSTHVPLTFGSGTQLEIK
One may read the EC50 as the midpoint of the concentration-response curve. B1: the concentration for a half-maximal effect (EC50) amounted to 0.4 nM in the assay with human CD38 [1], 0.7 nM with cynomolgus monkey CD38 [2], 0.11 nM with human CD38 [3] and 0.13 nM in the assay with cynomolgus monkey CD38 [4].

B2: AntiCD38_hhy_992 (antibody, V domains shown)
VH: QVQLVQSGAEVKKPGASVKVSCKVSGYTLTEFSIHWVRQAPGQGLEWMGGFDPEDGETIYAQKFQGRVIMTEDTSTDTAYMEMNSLRSEDTAIYYCTTGRFFDWFWGQGTLVTVSS
VL: EIILTQSPAILSLSPGERATLSCRASQSVISRFLSWYQVKPGLAPRLLIYGASTRATGIPVRFSGSGSGTDFSLTISSLQPEDCAVYYCQQDSNLPITFGQGTRLEIK
The Kd is the constant that tells how readily two partners part at equilibrium. Turning to B2, the Kd in the assay with human CD38 [5] is 0.365 nM; in the assay with cynomolgus monkey CD38 [6], 6.12 nM. Further, the 50% effective concentration (EC50) with human CD38 [1] is 100 nM; with cynomolgus monkey CD38 [2], 288 nM; with human CD38 [3] it was 0.09 nM; with cynomolgus monkey CD38 [4], 0.08 nM.

B3: AntiCD38_hyb_5739 (antibody, V domains shown)
VH: QVQLQQSGPELVRPGTSVKVSCKASGYAFTTYLVEWIKQRPGQGLEWIGVINPGSGSTNYNEKFKGKATLTVDRSSTTAYMHLSGLTSDDSAVYFCARYAYGYWGQGTTLTVSS
VL: DIVMTQSQKFMSASVGDRVSITCKASQNVGTAVAWYQQQPGHSPKQLIYSASNRYTGVPDRFTGSGAGTDFTLTISNIQSEDLADYFCQQYSTYPFTFGSGTKLEIK
For B3, the 50% effective concentration (EC50) turned out to be 0.3 nM with human CD38 [1], 0.5 nM with cynomolgus monkey CD38 [2], 0.12 nM with human CD38 [3] and 0.09 nM with cynomolgus monkey CD38 [4].

B4: CD38hhy1370/CD28sup x CD3mid_ENLQ DKTHT IgG4 FALA (other)
light 1: DIVMTQTPLSLSVTPGQPASISCKSSQSLVHENLQTYLSWYLQKPGQSPQSLIYKVSNRFSGVPDRFSGSGSGTDFTLKISRVEAEDVGVYYCGQGTQYPFTFGSGTKVEIKDKTHTDIQMTQSPSSLSASVGDRVTITCQASQNIYVWLNWYQQKPGKAPKLLIYKASNLHTGVPSRFSGSGSGTDFTLTISSLQPEDIATYYCQQGQTYPYTFGQGTKLEIKDKTHTRTVAAPSVFIFPPSDEQLKSGTASVVCLLNNFYPREAKVQWKVDNALQSGNSQESVTEQDSKDSTYSLSSTLTLSKADYEKHKVYACEVTHQGLSSPVTKSFNRGEC
heavy 1: QVQLVQSGAEVVKPGASVKVSCKASGYTFTSYYIHWVRQAPGQGLEWIGSIYPGNVNTNYAQKFQGRATLTVDTSISTAYMELSRLRSDDTAVYYCTRSHYGLDWNFDVWGKGTTVTVSSDKTHTQVQLVESGGGVVQPGRSLRLSCAASGFTFTKAWMHWVRQAPGKQLEWVAQIKDKSNSYATYYADSVKGRFTISRDDSKNTLYLQMNSLRAEDTAVYYCRGVYYALSPFDYWGQGTLVTVSSDKTHTASTKGPSVFPLAPCSRSTSESTAALGCLVKDYFPEPVTVSWNSGALTSGVHTFPAVLQSSGLYSLSSVVTVPSSSLGTKTYTCNVDHKPSNTKVDKRVESKYGPPCPPCPAPEAAGGPSVFLFPPKPKDTLMISRTPEVTCVVVDVSQEDPEVQFNWYVDGVEVHNAKTKPREEQFNSTYRVVSVLTVLHQDWLNGKEYKCKVSNKGLPSSIEKTISKAKGQPREPQVCTLPPSQEEMTKNQVSLSCAVKGFYPSDIAVEWESNGQPENNYKTTPPVLDSDGSFFLVSKLTVDKSRWQEGNVFSCSVMHEALHNHYTQKSLSLSLG
heavy 2: QVQLVESGGGVVQPGRSLRLSCAASGFTFSSYGMHWVRQAPGKGLEWVAVIWYDGSNKYYADSVKGRFTISGDNSKNTLYLQMNSLRAEDTAVYYCARMFRGAFDYWGQGTLVTVSSASTKGPSVFPLAPCSRSTSESTAALGCLVKDYFPEPVTVSWNSGALTSGVHTFPAVLQSSGLYSLSSVVTVPSSSLGTKTYTCNVDHKPSNTKVDKRVESKYGPPCPPCPAPEAAGGPSVFLFPPKPKDTLMISRTPEVTCVVVDVSQEDPEVQFNWYVDGVEVHNAKTKPREEQFNSTYRVVSVLTVLHQDWLNGKEYKCKVSNKGLPSSIEKTISKAKGQPREPQVYTLPPCQEEMTKNQVSLWCLVKGFYPSDIAVEWESNGQPENNYKTTPPVLDSDGSFFLYSKLTVDKSRWQEGNVFSCSVMHEALHNHYTQKSLSLSLG
light 2: AIQMTQSPSSLSASVGDRVTITCRASQGIRNDLGWYQQKPGKAPKLLIYAASSLQSGVPSRFSGSGSGTDFTLTISGLQPEDSATYYCLQDYIYYPTFGQGTKVEIKRTVAAPSVFIFPPSDEQLKSGTASVVCLLNNFYPREAKVQWKVDNALQSGNSQESVTEQDSKDSTYSLSSTLTLSKADYEKHKVYACEVTHQGLSSPVTKSFNRGEC
notes: Trispecific antibody; also called BP # 9
The term koff denotes the first-order rate constant of dissociation. As a reminder, the kon is the second-order rate constant of association. Regarding B4, in [7], the “EC50 of in vitro killing of NCI-H929 (CD38+/CD28+) cells, With Dara” value (shortened to “EC50 … (CD38+/CD28+) cells, With Dara”) came to 0.255 nM and the “EC50 of in vitro killing of NCI-H929 (CD38+/CD28+) cells, With human IgG1” value (shortened to “EC50 … (CD38+/CD28+) cells, With human IgG1”) is 0.0096 nM. For the same molecule, in assay [8], the “EC50 of in vitro killing of OCI-LY19 (CD38+/CD28-) cells, With Dara” value (“EC50 … (CD38+/CD28-) cells, With Dara” for short) amounted to 0.21 nM and the “EC50 of in vitro killing of OCI-LY19 (CD38+/CD28-) cells, With human IgG1” value (from here on “EC50 … (CD38+/CD28-) cells, With human IgG1”) came to 0.0585 nM. In addition, the EC50 with Human CD28 is 1.26 nM. The same molecule yielded a half-maximal effective concentration (EC50) in the assay with human CD38 [9] of 0.587 nM. In addition, the response with cynomolgus monkey CD38 [10] was half-maximal at 0.553 nM (EC50). In the assay with Human CD3, this molecule gave an EC50 of 25 nM. In the assay with Human CD38-His, this molecule came in with a dissociation constant (Kd) of 0.876 nM, a dissociation rate constant (koff) of 0.000329 s⁻¹ and an on-rate constant (kon) of 376000 M⁻¹ s⁻¹.

B5: CD38hyb5739/CD28sup x CD3mid_ENLQ DKTHT IgG4 FALA (other)
light 1: B4 light 1
heavy 1: B4 heavy 1
heavy 2: QVQLQQSGPELVRPGTSVKVSCKASGYAFTTYLVEWIKQRPGQGLEWIGVINPGSGSTNYNEKFKGKATLTVDRSSTTAYMHLSGLTSDDSAVYFCARYAYGYWGQGTTLTVSSASTKGPSVFPLAPCSRSTSESTAALGCLVKDYFPEPVTVSWNSGALTSGVHTFPAVLQSSGLYSLSSVVTVPSSSLGTKTYTCNVDHKPSNTKVDKRVESKYGPPCPPCPAPEAAGGPSVFLFPPKPKDTLMISRTPEVTCVVVDVSQEDPEVQFNWYVDGVEVHNAKTKPREEQFNSTYRVVSVLTVLHQDWLNGKEYKCKVSNKGLPSSIEKTISKAKGQPREPQVYTLPPCQEEMTKNQVSLWCLVKGFYPSDIAVEWESNGQPENNYKTTPPVLDSDGSFFLYSKLTVDKSRWQEGNVFSCSVMHEALHNHYTQKSLSLSLG
light 2: DIVMTQSQKFMSASVGDRVSITCKASQNVGTAVAWYQQQPGHSPKQLIYSASNRYTGVPDRFTGSGAGTDFTLTISNIQSEDLADYFCQQYSTYPFTFGSGTKLEIKRTVAAPSVFIFPPSDEQLKSGTASVVCLLNNFYPREAKVQWKVDNALQSGNSQESVTEQDSKDSTYSLSSTLTLSKADYEKHKVYACEVTHQGLSSPVTKSFNRGEC
notes: Trispecific antibody; also called BP # 6′
Consider B5, for which, in assay [7], the “EC50 … (CD38+/CD28+) cells, With Dara” value is 0.00911 nM and the “EC50 … (CD38+/CD28+) cells, With human IgG1” value turned out to be 0.00274 nM. In assay [8], the “EC50 … (CD38+/CD28-) cells, With Dara” value was 0.219 nM and the “EC50 … (CD38+/CD28-) cells, With human IgG1” value came to 0.061 nM. The half-maximal effective concentration (EC50) in the assay with Human CD28 worked out at 0.825 nM. The midpoint of the response with human CD38 [9], the EC50, lay at 0.984 nM. The molecule further yielded an EC50 in the assay with cynomolgus monkey CD38 [10] of 1.63 nM. Also, in the assay with Human CD3, it took 10.8 nM to reach a half-maximal effect (EC50). Further, in the assay with Human CD38-His, the Kd came out at 5.57 nM, the koff turned out to be 0.00546 s⁻¹ and the kon was determined as 980000 M⁻¹ s⁻¹.

B6: CD38hhy992/CD28sup x CD3mid_ENLQ DKTHT IgG4 FALA (other)
light 1: B4 light 1
heavy 1: B4 heavy 1
heavy 2: QVQLVQSGAEVKKPGASVKVSCKVSGYTLTEFSIHWVRQAPGQGLEWMGGFDPEDGETIYAQKFQGRVIMTEDTSTDTAYMEMNSLRSEDTAIYYCTTGRFFDWFWGQGTLVTVSSASTKGPSVFPLAPCSRSTSESTAALGCLVKDYFPEPVTVSWNSGALTSGVHTFPAVLQSSGLYSLSSVVTVPSSSLGTKTYTCNVDHKPSNTKVDKRVESKYGPPCPPCPAPEAAGGPSVFLFPPKPKDTLMISRTPEVTCVVVDVSQEDPEVQFNWYVDGVEVHNAKTKPREEQFNSTYRVVSVLTVLHQDWLNGKEYKCKVSNKGLPSSIEKTISKAKGQPREPQVYTLPPCQEEMTKNQVSLWCLVKGFYPSDIAVEWESNGQPENNYKTTPPVLDSDGSFFLYSKLTVDKSRWQEGNVFSCSVMHEALHNHYTQKSLSLSLG
light 2: EIILTQSPAILSLSPGERATLSCRASQSVISRFLSWYQVKPGLAPRLLIYGASTRATGIPVRFSGSGSGTDFSLTISSLQPEDCAVYYCQQDSNLPITFGQGTRLEIKRTVAAPSVFIFPPSDEQLKSGTASVVCLLNNFYPREAKVQWKVDNALQSGNSQESVTEQDSKDSTYSLSSTLTLSKADYEKHKVYACEVTHQGLSSPVTKSFNRGEC
notes: Trispecific antibody; also called BP # 5′
Consider B6, for which, in assay [7], the “EC50 … (CD38+/CD28+) cells, With Dara” value is 0.126 nM and the “EC50 … (CD38+/CD28+) cells, With human IgG1” value was found to be 0.0134 nM. In assay [8], the “EC50 … (CD38+/CD28-) cells, With Dara” value came to 0.133 nM and the “EC50 … (CD38+/CD28-) cells, With human IgG1” value amounted to 0.0573 nM. In the assay with Human CD28, this molecule showed an EC50 of 0.809 nM. Further, the concentration giving a half-maximal response (EC50) with human CD38 [9] was 0.229 nM. The molecule also came in with an EC50 with cynomolgus monkey CD38 [10] of 0.912 nM. In the assay with Human CD3, this molecule registered an EC50 of 33.6 nM. Further, in the assay with Human CD38-His, the dissociation constant (Kd) worked out at 0.129 nM, the dissociation rate constant (koff) was 0.000175 s⁻¹ and the kon came out at 1.35e+06 M⁻¹ s⁻¹.
